Where only a bound is given, the exact number is not on record here.

For two substances, fold increase in binding compared to GST alone and fold increase in binding over the single-finger fusion results are on record in paper PMC4136804.

One experiment concerns the target GST-tagged SUMO-2 (UniProt P61956). The experiment is described as follows: pull-down; as the plate assay, equal cpm of radiolabeled protein per well, eluted protein counted by liquid scintillation; mean of three experiments, compared with GST alone.
The next experiment addresses GST-tagged SUMO-2(x3). Described as above.

Chain of GST-tagged SUMO-2(x3) (main, as listed by the source): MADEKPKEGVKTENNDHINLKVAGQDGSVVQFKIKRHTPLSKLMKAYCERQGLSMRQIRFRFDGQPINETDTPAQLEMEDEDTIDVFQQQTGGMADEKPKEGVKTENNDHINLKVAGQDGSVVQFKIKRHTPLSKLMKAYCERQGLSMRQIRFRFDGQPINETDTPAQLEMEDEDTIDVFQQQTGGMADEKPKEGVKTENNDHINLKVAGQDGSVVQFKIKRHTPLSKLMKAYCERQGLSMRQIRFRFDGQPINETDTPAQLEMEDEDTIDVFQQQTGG
Chain of pyruvate kinase fused with a single MYM-type zinc finger of ZNF261 (domain or fragment) (Q14202 327-738): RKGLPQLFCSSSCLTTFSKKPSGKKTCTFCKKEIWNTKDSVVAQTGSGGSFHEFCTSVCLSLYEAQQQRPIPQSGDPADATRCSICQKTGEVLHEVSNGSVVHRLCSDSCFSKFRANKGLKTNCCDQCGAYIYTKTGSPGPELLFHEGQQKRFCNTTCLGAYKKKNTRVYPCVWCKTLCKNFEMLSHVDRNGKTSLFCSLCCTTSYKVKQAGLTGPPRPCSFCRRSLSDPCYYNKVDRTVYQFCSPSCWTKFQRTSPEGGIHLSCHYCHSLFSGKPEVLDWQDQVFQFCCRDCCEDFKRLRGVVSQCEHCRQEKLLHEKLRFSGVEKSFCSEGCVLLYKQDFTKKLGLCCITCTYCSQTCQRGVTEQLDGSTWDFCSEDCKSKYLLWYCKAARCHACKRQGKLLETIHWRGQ
Chain of pyruvate kinase fused with the first two MYM-type zinc fingers of ZNF261 (domain or fragment) (Q14202 327-738): as above

For the substance “pyruvate kinase fused with a single MYM-type zinc finger of ZNF261 (domain or fragment)”, the fold increase in binding compared to GST alone with GST-tagged SUMO-2 turned out to be 1.5 fold; in the experiment with GST-tagged SUMO-2(x3) it was 3 fold.

As to “pyruvate kinase fused with the first two MYM-type zinc fingers of ZNF261 (domain or fragment)”, the fold increase in binding over the single-finger fusion in the experiment with GST-tagged SUMO-2 and with GST-tagged SUMO-2(x3) was > 2 fold throughout.
